The nanobody polyreactivity screen of Harvey et al. (2022)

Assay: yeast display, Sf9 membrane polyspecificity reagent, FACS + sequencing; frameworks hold sequencing errors
How it was run: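 In a synthetic yeast display library (Saccharomyces cerevisiae BJ5465), nanobody expression was induced with galactose for 36–48 hours. FACS gates were set low and high (top ~1%) using anti-HA fluorescence for expression and streptavidin fluorescence for binding of the Sf9 membrane reagent. Each polyreactivity label is drawn from the gate of origin.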

Sequence	polyreactivity (PSR sort gate)
QVQLVESGGGIVQAGGSLRLTCAASGFIFWDYAMGWYRQAPGKERELVAAISDSGGDTYYADSVKGRFTISRDNAKNTVYLQMNSLNPEDTAVYYCASVVELWVFRGQQYDYWGQGTQVTVSS	low polyreactivity
QVQLVESGGGIVQAGGSLRLTCAASGRIFAWYAMGWYRQAPWKERELVASITWGGGRTYYADSVKGRFTISRDNAKNTVYLQMNCLKPEVTAVYYCAAYRYKEEAYLGVAQERDYWGQGTLVTVSS	low polyreactivity
QVQLVESGGGIVQARGSLRLSCAASGRIFAPYAMGWYRQAPGKERELVAAIRISGDSTYYADSVKGRFTISRDNAKNTVYLQMNSLKPHDTAVYYCAAEYYILHWFGYAGYPAYNYWGQGTQVTVSS	high polyreactivity
QVQLVESGGGIVQEGGSLRLSCAASGRTFNRYAMGWYRQAPGKERELVAAISWSGGRTYYADSVKGRFTISRDNAKNTVYLQMNSLIPEGTAVYYCAKEAYIRYDYWGQGTQVTVSS	low polyreactivity
QVQLVESGGGIVQSGGSLRLSCAASGSIFQPYAMGWYRQAPGQEREFVAAISRSGGITYYADSVKGRFTISRDNAKNTVYLQMYSLKPEDTAVYYCATGRQVVRSYSEGDYWGQGTQVTLSS	low polyreactivity
QVQLVESGGGKVQAGGSLRLICAASGSTFSSYAMGWYRQAPGKERELVAGISRGGSSTDYADSVKGRFTISRDNAKNTVYLQMNSLKPEDPAVYYCNAKVWWSFNGLEYDYWGQGTQVTVSS	low polyreactivity
QVQLVESGGGKVQAGGSLRLSCAASGFIFRYYAMGWYRQAPGKERELGAAISKRGGSTYYADSVKGRFTISRDNAKNTVYLQMNSLKADDTAVYYCARGYPIDPSFDTYDYWGQGTQVTVSS	high polyreactivity
QVQLVESGGGKVQAGGSLRLSCASSGFTYDSNAMGSYRQAPGKERELVAAISTGGSTYYADSVKGPFTISRDNANITVYLQMYSLKPEDTAVYYCARDPPYPDTWYGYWGQGTQVTVSS	low polyreactivity
QVQLVESGGGLAQAGCSLRLSCAASGRLFRGNAMGGYRQAPGKERELVARITGNDGDTYYADSVKGRFTISRDNAKNTVYLQMNSLKPEDTAVYYCATDTSSYRRRYYYWGQGTQVTVSS	low polyreactivity
QVQLVESGGGLAQAGGSLRLSCAASGRTFVTNAMGWYRQAPGKERELVAAISKSGGRTYYADSVKGRFTISRDNAKNTVYLQMNSLKPEDTAVYYCAADKRYLSYDYWGQGTQVTVSS	high polyreactivity
QVQLVESGGGLAQAGGSLRLTCAASGSTFQIYAMGWYRPAPGKERELVAAITSSSSTNYADSVKGRFTISRDNAKNTVYLQMNRLKPEDTAVYYCAADVSWRSNWYDYWGLGTQVTVSS	low polyreactivity
QVQLVESGGGLDHAGGSLRLSCAASGFIFTPNAMGMYRQAPAKEREWVAAITSGGVTYYADSVKGRFTISRDNAKNTVYIQMNSLKPEGTAVYYCKKNHTGTVRDSIYGYWGQGNQVTVSS	high polyreactivity
QVQLVESGGGLDHAGGSLRLSCAASGITFKRYAMGWYRQAPGKERELVAAISDIGGRTYYADSVKGRFTISRDNAKNTVYLQMNSLKPEDTAVYYCAADYYSPVDWYYYWGQGTQVTVSS	high polyreactivity
QVQLVESGGGLDQAGGRLPLTCAASGLIFYDNMGWYRHAPGKERELVAAISSSGGSTSYADSVKGRFTISRDNAKNTVFLQMICLKPEDTAVYYCAADSYPAYLGFVGFDYWGQGTIVTVSS	low polyreactivity
QVQLVESGGGLDQAGGRLRLSCAASGITVGYNDMGRYRQARGKERELVAAINRGASTNYADSVKGRFTISRDNAKNTVYFQMNCLKPEDTAVYYCNADHRDTFIWVGLPHMDYWGQGTQVTVSS	low polyreactivity
QVQLVESGGGLDQAGGSHRLSCAASGFTFYPNAMGWYRQAPGKERELVASINSDGSTNYADSVKGRFTISRDNAKNTVYLPMNSLIPEDTAVYYCAAGYFWGRIKYYYWVQGTQVTVSS	high polyreactivity
QVQLVESGGGLDQAGGSLGLSCAASGFTFTGYTMGWYRQAPGKERELVATISGSGGNTYYADSVKGRFTISRDNAKNTVYLQMNSLKPEETAVYYCARRRSGPRVLYYYWGQGTQVTVSS	low polyreactivity
QVQLVESGGGLDQAGGSLPLSCAASGITSYVYAMRWYRQAPGKERELVASISWTGGNTYADSVKGRFTISRDNAKNTVYLPMNSLKPEDTAVYYCNAGRSWDYWYGYDYWGQGTQVTVSS	low polyreactivity
QVQLVESGGGLDQAGGSLRLICAASGSIFNGNAMGWYRQAPGKQRDLVAAITRRGGSTYYADSVKVRFTISRDNAKNTVYLQMNSLKPEDTAVYYCAAEDWLYKRPYKERIVQFYYWGQGTQVTVSS	low polyreactivity
QVQLVESGGGLDQAGGSLRLSCAASALIFSSYAMGWYRQAPGKERELVAAITGSGGRTYYADSVKGRFTISRDNAKNTVYLQMNSLKPEDTAVYYCAAKYPAPRYYTGYDYWGQGTQVTVSS	high polyreactivity
QVQLVESGGGLDQAGGSLRLSCAASGFIFFRYAMGWYRQAPRKEREMVAAISSSGGSTYYADSVKGRFTISRDNAKNTVYLQMNSLKPEDTAVYFCAAPRYPIFVGLGKDYWGQGTQVTVSS	high polyreactivity
QVQLVESGGGLDQAGGSLRLSCAASGFIFRYYTMGWYRQAPGKERELFATITSGGSTYYADSVKGRFTISRDNAKNTVYLQMNSLKPEDTAVYYCAKYHSLRRQYSKFRPTFDYWGQGTQVTVSS	high polyreactivity

Sequence	polyreactivity (PSR sort gate)
QVQLVESGGGLDQAGGSLRLSCAASGFILGDYAMGWYRQAPGKERELVAAITSSGGSTYYADSVKGRFTISRDNAKNTVYFQMNSLKPEDTAVYYCNTVYVYGPEYDYWGQGTQVTVSS	high polyreactivity
QVQLVESGGGLDQAGGSLRLSCAASGFIYSWYAMGWYRQAPGKERELVAAISSSGVSTYYADSVKGRFTISRDNAKNTVYLQMNSLKPEDTAVYYCNAYGSVWDRGEYDYEYWGQGTQVTVSS	low polyreactivity
QVQLVESGGGLDQAGGSLRLSCAASGFTFDENAMGSYRQAPGINYSGASTYYADSVKGRFTISRDNAKNTVYLQMNSLKPEDTAVYYCAAEVVAQMNYWGQGTQVTVSW	low polyreactivity
QVQLVESGGGLDQAGGSLRLSCAASGFTFGYYAMGWYRQAPGKERELVATIDRGGGTSYADSVKGRFTISRDNAKNTVYLQMNSLKPEDTAVYYCNRAGYGAKARRYRSYWGQGTQVTVSS	high polyreactivity
QVQLVESGGGLDQAGGSLRLSCAASGFTFPLYAMGWYRQAPGKERELVAVISRSGGSTYYADSVKGRFTISRDNAKNTVYLQMNSLTPEDTAVYYCAARLVPRSPERGNYDYWGQGTQVTVSS	high polyreactivity
QVQLVESGGGLDQAGGSLRLSCAASGFTFPRYAMGWYRQAPGKERELVAAITLIGGSTYYADSVKGRFTISRDNAKNTVYLQMNSLKPEDTAVYYCAATDRKVGVYHSYYYWGQGTQVTVSS	low polyreactivity
QVQLVESGGGLDQAGGSLRLSCAASGFTFRRYAMGWYSQAPGKEREFVAAITTRGSNTYYADSVKGRFTISRDNAKNTVYLQMNSLKPEDTAVYYCAASYYPPGHYDYWGQGTQVTVSS	high polyreactivity
QVQLVESGGGLDQAGGSLRLSCAASGFTFTAYDMGWYRQAPGKVRELVAAINWSGSRTYYADSVKGRFTISRDNAKNTVYLQMNSLKPEDTAVYYCNTATSKSSYLHYDYWGQGTQVTVSS	high polyreactivity
QVQLVESGGGLDQAGGSLRLSCAASGFTFYSYVMGWYRQAPGKERELVAAITRGGSTYYADSVKGRFTISRDNAKNTVYLQMNSMKPDDTAVYYCAKRPSYGFNYWGQGTQVTVSS	low polyreactivity
QVQLVESGGGLDQAGGSLRLSCAASGFTFYVYTMGWYRQAPGKERELVARITSRAGRTYYADSVKGRFTISRDNAKNTVYLQMNSLKPEDTAVYYCNTRDFSGYVHALSLYDYWGQGTQVTVSS	high polyreactivity
QVQLVESGGGLDQAGGSLRLSCAASGGIFVGYAMGWYRQSPGKERELVASISSGGSTKYADSVKGRFTISRDNAKNTVYLQMNSLKPEDTAVYYCAATDTEGIDARYASVPTSYDYWGQGTQVTVSS	low polyreactivity
QVQLVESGGGLDQAGGSLRLSCAASGIIFVKYTMGWYIQAPGKERELDAAISRSGGSTYYADSVKGRFTISRDNAKYTVYLQMNSLKPEDTAVYYCNAGARKVYPGPMDYWGQGTQVTVSS	high polyreactivity
QVQLVESGGGLDQAGGSLRLSCAASGITFRWYAMGWYRQAPGKERELVAAISSGGSTRYADSVKGRFTISRDNAKNTVYLQMNSLKPEDTAVYYCAKRYYGRGYYYWGQGTQVTVSS	high polyreactivity
QVQLVESGGGLDQAGGSLRLSCAASGLIFYDKMGWYRQAPRKERELVAAISSSCGSTSYADSVKGRFTISRDNAKHTVYLQMNSLKPEDTAVYYCAADSYPAYLGFVGFDYWGQGTQVTVSS	low polyreactivity
QVQLVESGGGLDQAGGSLRLSCAASGLTFRPYAMGGYRQAPWKERELDAGISGGGGRTYYADSVKGRFTISRDNAKNTVYFQMNSLKPEDTAVYYCATPSAYRYPYYYDYEYWGQGTQVTVSS	low polyreactivity
QVQLVESGGGLDQAGGSLRLSCAASGNIFYGNAMGWSRQAPGKERELVAGITSGGSTNYADSVKGRFTISRDTAKNTVYLQMTSLKPEDTAVYYCNATSSGSIFGYEYWGQGTQVTVSS	low polyreactivity
QVQLVESGGGLDQAGGSLRLSCAASGRIFFGNVMGWYRQATGKDSELVAAITKRVGRTYYADSVKGRFTISRDNAKNTVYLQMNSLKPEDTAVYYCNAVTPLSYCRAAPLEMDYWGQGTQVTVSS	high polyreactivity
QVQLVESGGGLDQAGGSLRLSCAASGRIFGYYAMGWYRLAPGKERELVAGIRSVGSTNYADSVKGRFTISRDNAKNTVYLQMNSLKPEDTAVNYCASRLWHLSYAGQGGDYWGQGTQVTVSS	low polyreactivity
QVQLVESGGGLDQAGGSLRLSCAASGRIFHVNVMGGYRQAPGKERELVAAISKSGGSTYYADSVKGRFTISRDNAKNTVYLQMNSLKPEDTAVYYCAAVRDSARYYYWGQGTHVTVSS	high polyreactivity
QVQLVESGGGLDQAGGSLRLSCAASGRIFNKYAMGWYRQAPGKERELVAAITRSGTRTFYADSVKGRFTISRDNAKNTVYLQMNSLKPEDTAVYYCNRDQYPFTKMDYWGQGTQVTVSS	high polyreactivity
QVQLVESGGGLDQAGGSLRLSCAASGRIFRYYTMGWYRQAPGKERELVAAISTSDDSTNYADSVKGRFTISRDNAKNTVYLQMNSLKPEDTAVYYCAADQSRVGSYQDYDYWGQGTQVTVSS	low polyreactivity
